Sequences and labels used below:
B1: m1033-15 (ScFv15) human anti-CD33 ScFv binder, soluble (scFv)
scFv: EVQLVQSGAEVKKPGESLKISCKGSGYSFTSYWIGWVRQMPGKGLEWMGIIYPGDSDTRYSPSFQGQVTISADKSISTAYLQWSSLKASDTAMYYCARLTTAGGMDVWGQGTTVTVSSGGGGSGGGGSGGGGSEIVLTQSPLSLPVTLGQPASISCRSSQSLVHSDGNTYLSWLHQRPGQPPRLLMYKISNRFSGVTDRFSGSGSGTDFTLKISRVEAEDVGVYYCMQGIHLPLTFGGGTKLEIK
notes: also called CD33 ScFv 15; not shown: His and Flag tags
B2: m1033-10 (ScFv10) human anti-CD33 ScFv binder, soluble (scFv)
scFv: QVQLQQSGPGLVKPSQTLSLTCAISGDSVSSNTAAWNWIRQSPSRGLEWLGRTYYRSKWYNDYAVPVKSRITINPDTSKNQFSLQLNSVTPEDTAVYYCARETYYYGSGSYWDAFDIWGQGTTVTVSSGGGGSGSGGSGGGGSQSVVTQPPSVSAAPGQKVTISCSGSSSNIGNNYVSWYQQLPGTAPKLFIYKNNQRPSEVPDRFSGSKSGTSASLAISGLQSDDEADYYCAAWDDRLNGYVFGTGTKVTVL
notes: also called CD33 ScFv 10; not shown: His and Flag tags
B3: m1033-9 (ScFv9) human anti-CD33 ScFv binder, soluble (scFv)
scFv: QVQLVQSGAEVKKPGESLRISCKGSGFSFPTYWIGWVRQMPGKGLEWMGIIYPGDSDTRYSPSFQGQVTISADKSISTAYLQWSSLKASDTAMYYCARLVGDGYNTGAFDIWGQGTMVTVSSGGGGSGGGGSGGGGSDIVMTHTPLSLSVTPGQPASISCKSSQSLLHSNGKTYLYWYLQKPGQPPQLLIYGASNRFSGVPDRFSGSGSGTDFTLKISRVEAEDVGVYYCMQSIQLPITFGQGTRLEIK
notes: also called CD33 ScFv 9; not shown: His and Flag tags
B4: m1033-12 (ScFv12) human anti-CD33 ScFv binder, soluble (scFv)
scFv: QVQLQQSGPGLVKPSQTLSLTCAISGDSVSSNSAAWNWIRQSPSRGLEWLGGTYYRSKWYNDYAVSVKSRIIINADTSKNQFSLQLNSVTPEDTAVYYCARGYYYDSTDWFDPWGQGTLVTVSSGGGGSGGGGSGGGGSSSELTQDPTVSVALGQTVRITCQGDSLRSYYASWYQQKPGQAPVLVIYGKNNRPSGIPDRFSGSSSGNTASLTITGAQAEDEADYYCSSRDGSGHPYLFGPGTKVTVL
notes: also called CD33 ScFv 12; not shown: His and Flag tags
B5: m1033-4 (VH-4) human anti-CD33 VH domain binder, soluble (VHH)
VHH: EVQLVESGGGLVQPGGSLRLSCAASGFTFSSYGMSWVRQAPRQGLEWVANIKQDGSEKYYADSVKGRFTISRDNSKNTLYLQMNSLRAEDTATYYCAKENVDWGQGTLVTVSS
notes: Human heavy chain variable domain only (not camelid), from a phage library, expressed in E. coli HB2151 and purified on Ni-NTA; also called CD33_4; CD33 VH-4; not shown: His and Flag tags
B6: m1033-2 (VH-2) human anti-CD33 VH domain binder, soluble (VHH)
VHH: EVQLVESGGGLVQPGGSLRLSCAASGFTFSSYGMSWVRQAPRKGLEWIGEINHSGSTNYNPSLKSRVTISRDNSKNTLYLQMNSLRAEDTATYYCARPLNYYYYYMDVWGKGTTVTVSS
notes: Human heavy chain variable domain only (not camelid), from a phage library, expressed in E. coli HB2151 and purified on Ni-NTA; also called CD33 VH-2; not shown: His and Flag tags

T1 sequence (P20138 18-259 limits assumed): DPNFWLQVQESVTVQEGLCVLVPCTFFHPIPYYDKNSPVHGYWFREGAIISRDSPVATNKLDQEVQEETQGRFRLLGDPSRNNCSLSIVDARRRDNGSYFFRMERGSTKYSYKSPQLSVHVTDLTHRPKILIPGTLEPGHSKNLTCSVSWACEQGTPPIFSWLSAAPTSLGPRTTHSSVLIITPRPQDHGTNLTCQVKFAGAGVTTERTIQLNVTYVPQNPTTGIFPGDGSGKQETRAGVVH

The first experiment addresses T1, recombinant human CD33 (human, UniProt P20138 18-259, limits assumed).
T1 construct: also called coated CD33
Kind of experiment: ELISA, coated recombinant human CD33, purified His/Flag-tagged ScFv, anti-Flag-HRP. On the procedure:
(§1) 50 μl of the diluted recombinant human CD33 in PBS at 2 ug/ml was coated in a 96-well plate at 4° C. overnight. Purified ScFv or VHs (from above) with His and Flag tags were serially diluted and added into the target protein coated wells. After washing, a 1:3000 diluted HRP conjugated anti-Flag antibody was added for 1 hr at RT. After washing, 3, 3, 5, 5′-Tetramethylbenzidine (TMB) substrate was added, 1N H₂SO₄ was added to stop the reaction after incubation at room temperature for 10 minutes, and the O.D. was read at 450 nm to quantify the relative ability of ScFv to bind CD33.
B1: the binding result is given as “binds”. As to B2, the binding result is reported as “binds”. As for B3, the binding result is “binds”. Turning to B4, the binding result is “binds”.

The target in the next experiment is T1, recombinant human CD33. The experiment is described as follows: ELISA, coated recombinant human CD33, purified His/Flag-tagged VH, anti-Flag-HRP. On the procedure:
as §1
Take B5: the binding result is “binds”. In the case of B6, the binding result is given as “binds”.

For the origin of these results see patent publication US20200101109A1 (LENTIGEN TECHNOLOGY, published 2020).
